Experimental data: patent US20240299584A1, “NON-CODING RNA PROTECTING AGAINST HEART FAILURE” (MEDIZINISCHE HOCHSCHULE HANNOVER, priority 2019, published 2024)

Tests used:
[1] = system: HL-1 cells; test: WST-1 assay (cell viability); format: cell-based, mouse; conditions: HL-1 cells treated with doxorubicin 0.25 μM 48 h
Method: HL-1 cells were cultured in Claycomb medium together with 10% FBS, norepinephrine, L-Glutamine and pencillin/streptomycin as manufacturer's protocol. 3T3 and RAW264.7 cells were cultured in DMEM with 10% FBS and pencillin/streptomycin. Neonatal rat cardiomyocytes (NRCM) were isolated from one to three-day old rat babies by using the Neonatal Heart Dissociation Kit (Miltenyi). Human iPSC derived cardiomyocytes (hiPSC-cm) were differentiated at the lab of IMTTS. All the cells were treated with 0.25 μM Doxorubicin (Sigma-Aldrich) for 48 hours. circ-Insr siRNA (Eurofins), in vitro circular RNA and overexpression plasmid were transfected with Lipofectamine 2000 (Life Technologies) in OptiMEM medium. NRCM and hipsc-CM were transduced by AAV6 (MOI: 1*10^4) for 72 hours.
WST-1 assay was performed using Cell Proliferation Reagent WST-1 (Roche) as per the manufacturer instruction. Briefly, HL-1 cells were seeded in 96 well plate and next day treated with 0.25 μM Doxorubicin in normal medium with 10% FBS for forty-eight hours. Next, 10 μL WST1 reagent was added and incubated for 1 hour followed by the absorbance measurement (450 nm) at HT Synergy (Biotek) plate reader.

[2] = system: cardiomyocytes; test: Cardiomyocyte size on wheat germ agglutinin stained heart sections; format: in vivo, mouse; conditions: WGA stained heart sections, doxorubicin model; circINSR given as AAV9
Method: (§1) In addition to apoptosis, doxorubicin is known to cause cardiomyocyte atrophy^12 (G). Thus, histopathology analyses were performed on transversal heart section.
Cryosections of heart were stained with Alexa Fluor 488 labelled wheat germ agglutinin (Invitrogen) and dapi. Images were taken with Nikon Eclipse Ti microscope and images were analyzed with NIS Elements. For each heart 5 to 10 images were randomly taken from different regions of the section and minimum two hundred cells were measured and average value was taken for each heart.

[3] = biological target: T1, SSBP1 (Mus musculus, UniProt Q9CYR0); test: RNA pull-down with circINSR probe, Western blotting; format: binding; conditions: Western blot with SSBP1-specific antibodies
T1 construct: biotinylated DNA oligo probes against endogenous or ectopically expressed circ-Insr and linear-Insr; endogenous in cells; host or cells: 3T3 cells
T1 sequence (Q9CYR0 17-152): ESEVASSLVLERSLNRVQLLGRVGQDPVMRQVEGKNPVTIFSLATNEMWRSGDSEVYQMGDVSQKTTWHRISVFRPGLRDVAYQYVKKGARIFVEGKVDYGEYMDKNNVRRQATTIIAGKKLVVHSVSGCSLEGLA
Method: Finally, RNA pull-down experiments were performed to identify potential protein interaction partners of circINSR. To do so, a biotin-labelled probe was designed which spans the backsplice junction (FIG. 8A). […] Mass spectrometry analysis of the pull-down lysates yielded a list of potential protein interactors. After applying several filtering parameters (relative MS peptide count >15, relative enrichment over hostgene and control probe log 2FC>2) and cat rapid analysis to calculate the interaction propensity with circINSR, Single-stranded DNA-binding protein 1, SSBP1, was identified as the most probable binding partner of circINSR (FIG. 8B). […] Moreover, co-localisation of circINSR and SSBP1 in Immuno-RNA-FISH staining, further confirmed the interaction between those two.
Cell pellets were lysed in 1× Cell lysis buffer (Cell Signaling) and isolated protein was measured by Bradford (Biorad) for quantification. […] Band intensity was calculated by Image J software.
10^6 cells were washed in ice-cold phosphate-buffered saline, lysed in 500 μl co-IP buffer, and incubated with 3 μg biotinylated DNA oligo probes against endogenous or ectopically expressed circ-Insr and linear-Insr, at room temperature for 2 h. […] The bound proteins in the pull-down materials were analyzed by western blotting and the RNA sample were analysed via qRT-PCR.

[4] = system: HL-1 cells; test: mtDNA copy number measurement; format: cell-based, mouse; conditions: doxorubicin 0.25 μM 48 h, circ-Insr by overexpression plasmid
Method: Based on the results of the foregoing examples, it was reasoned that circ-Insr could interact with SSBP1. To further confirm the interaction between circ-Insr and SSBP1, siRNA mediated circ-Insr knock-down was applied in HL-1 cells. Next, RNA pulldown was performed with circ-Insr and scramble biotinylated probes. RT-qPCR confirmed that decrease of circ-Insr appeared both in input and circ-Insr pulldown group (FIG. 23A). […] Therefore, we assumed that circ-Insr is a cofactor of SSBP1 resulting in the regulation of mitochondrial function in cardiomyocytes by stabilizing mtDNA. […] Furthermore, mito-damage assay was applied to measure the changes in mitochondrial membrane potential (MMP). […] Next, we co-transfected HL-1 cells with pcDNA-circ-Insr and SSBP1 siRNA and examined cell viability using the WST assay to explore whether SSBP1 participated in the circ-Insr overexpression-mediated therapy of doxorubicin-cardiotoxicity. RT-qPCR indicated SSBP1 siRNA could downregulate endogenous SSBP1 expression (FIG. 23G).
The ratio of mtDNA to genomic DNA was calculated by dividing copies of CYTB with copies of ACTB in each experiment (Li J, Chan M C, Yu Y, Bei Y H, Chen P, Zhou Q L, et al. miR-29b contributes to multiple types of muscle atrophy. Nature communications. 2017; 8). […] Fluorescence was measured during the last step of each cycle using the SYBR channel. […]

[5] = system: apoptotic cardiomyocytes; test: TUNEL and cardiac troponin T co-staining of heart sections; format: in vivo, mouse; conditions: transversal heart sections, doxorubicin model; circINSR given as AAV9
Method: as §1
Cells were fixed with 4% paraformaldehyde for twenty minutes at room temperature and then permeabilized with ice-cold 0.1% Triton-X-100 in PBS for two minutes at room temperature. Next cells were incubated with enzyme labelling solution provided with In Situ cell death detection kit (Roche) for 1 hour at 37° C. For negative staining, enzyme was not added to the labelling solution. Cells were then washed and incubated with Dapi for 15 minutes. To specifically label neonatal rat cardiomyocytes and hipsc-CM, cells were co-stained with cardiac Troponin T (Thermofisher) after Tunel staining. Images were taken with Nikon Eclipse Ti microscope and images were analyzed with NIS Elements. For analysis in each case, ten different images were analyzed from different regions and average value was taken. Similarly, cryosections of heart were also processed for staining. Numerous images covering complete heart section was taken and Tunel positive nuclei were counted in each field. Average value for each heart was calculated.

B1: circINSR: circRNA formed through backsplicing of the second exon of the insulin receptor gene transcript; overexpressed from plasmid or AAV (nucleic acid, listed as Homo sapiens)
chain: UGUGUCCCGGCAUGGAUAUCCGGAACAACCUCACUAGGUUGCAUGAGCUGGAGAAUUGCUCUGUCAUCGAAGGACACUUGCAGAUACUCUUGAUGUUCAAAACGAGGCCCGAAGAUUUCCGAGACCUCAGUUUCCCCAAACUCAUCAUGAUCACUGAUUACUUGCUGCUCUUCCGGGUCUAUGGGCUCGAGAGCCUGAAGGACCUGUUCCCCAACCUCACGGUCAUCCGGGGAUCACGACUGUUCUUUAACUACGCGCUGGUCAUCUUCGAGAUGGUUCACCUCAAGGAACUCGGCCUCUACAACCUGAUGAACAUCACCCGGGGUUCUGUCCGCAUCGAGAAGAACAAUGAGCUCUGUUACUUGGCCACUAUCGACUGGUCCCGUAUCCUGGAUUCCGUGGAGGAUAAUUACAUCGUGUUGAACAAAGAUGACAACGAGGAGUGUGGAGACAUCUGUCCGGGUACCGCGAAGGGCAAGACCAACUGCCCCGCCACCGUCAUCAACGGGCAGUUUGUCGAACGAUGUUGGACUCAUAGUCACUGCCAGAAAG
modifications: circular RNA; RNA sequence
notes: circRNA formed through backsplicing of the second exon of the insulin receptor gene transcript; overexpressed from plasmid or AAV
- cell viability (WST-1) [1]: enhanced cell viability
- cell viability (WST-1) ([1]; listed as circ-Insr): enhance the cell survival
- cardiomyocyte size [2]: indistinguishable from control mice
- interaction of circINSR with SSBP1 [3]: confirmed a physical interaction
- mtDNA copy number / mtDNA content [4]: reverse the decrease
- apoptotic cardiomyocytes (TUNEL / cTNT) [5]: significantly blunted
